This is an account of results in article PMC3762362.

The target of assay [1] is SNAP-tagged S. cerevisiae Arp2/3 complex labeled with Dy649 and biotin (Arp2/3-SNAP649-biotin) (S. cerevisiae) (UniProt P32381). The assay is described as follows: colocalization single molecule spectroscopy (CoSMoS, TIRF); Arp2/3-SNAP649-biotin tethered to the slide through streptavidin; 0.1–2 nM Cy3-diVCA construct and 1 μM actin (10% AF488 labeled) in solution; periods with no filament colocalized; TIRF buffer (50 mM KCl, 1 mM MgCl2, 1 mM EGTA, 10 mM imidazole pH 7.2).

Assay [2] concerns the target SNAP-tagged S. cerevisiae Arp2/3 complex labeled with Dy649 (Arp2/3-SNAP649) (S. cerevisiae) (UniProt P32381).
Assay [3] has the same target. This is another data set of the same source.
The target is the same in assay [4]. Kind of assay: colocalization single molecule spectroscopy (CoSMoS, TIRF); biotinylated AF488-actin filaments tethered to the slide; 5 nM Arp2/3-SNAP649, 5 nM Cy3-diVCA construct and 1 μM actin (10% AF488 labeled) in solution; TIRF buffer; time resolution 0.15 s.
In assay [5] the target is VCA-AF594 (N-WASP VCA 430–505, S430C, C431A, AlexaFluor 594 labeled) (human) (UniProt O00401). The assay is described as follows: fluorescence polarisation; fluorescence anisotropy of 10 nM VCA-AF594 with increasing non-polymerizable Drosophila 5C actin or yeast Arp2/3 complex; single site binding isotherm. On the technique in general: In fluorescence polarisation assays a small probe gives low polarisation when free and higher when bound to something large.

In assay [6] the target is Endogenous bovine Arp2/3 complex (bovine (endogenous in calf thymus)) (UniProt A7MB62). Kind of assay: fluorescence polarisation; fluorescence anisotropy competition: VVCA-A462C-AF594 reporter with 200 nM bovine Arp2/3 complex and increasing unlabeled GST-VCA, GST-VVCA or GST-VCA-C*; fit to a competition-binding isotherm.
The target in assay [7] is VVCA-A462C-AF594 (N-WASP 393–505, C431A, A462C, AlexaFluor 594 labeled) (human) (UniProt O00401). Kind of assay: fluorescence polarisation; fluorescence anisotropy, direct binding of 20 nM VVCA-A462C-AF594 to bovine Arp2/3 complex; no actin; 10 min incubation.
Assay [8] concerns the target Surface-tethered actin filaments (10% AF488 labeled, 1% biotinylated) (rabbit) (UniProt P68135). Kind of assay: colocalization single molecule spectroscopy (CoSMoS, TIRF); biotinylated AF488-actin filaments tethered to the slide; Arp2/3-SNAP649 and 1 μM actin in solution, no VCA; TIRF buffer; rate constant per filament subunit.
Assay [9] shares this target. The assay is described as follows: colocalization single molecule spectroscopy (CoSMoS, TIRF); biotinylated AF488-actin filaments tethered to the slide; 5 nM Arp2/3-SNAP649, 5 nM Cy3-diVCA construct and 1 μM actin (10% AF488 labeled) in solution; TIRF buffer; time resolution 0.15 s.

As usually defined, the Kd is the equilibrium constant for the complex coming apart. The low end stands for tighter binding, the high end for weaker binding. In general, kon refers to a measure of how fast the partners come together.

Sequence of Cy3-diVCA-A* (Δ486–488) (O00401 other isoform, or with tags, fused parts or gaps mutant): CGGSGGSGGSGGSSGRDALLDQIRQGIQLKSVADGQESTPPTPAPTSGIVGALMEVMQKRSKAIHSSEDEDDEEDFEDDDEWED
Sequence of Cy3-diVCA wild-type (N-WASP VCA covalently dimerized with a Cy3 bis-maleimide) (O00401 other isoform, or with tags, fused parts or gaps): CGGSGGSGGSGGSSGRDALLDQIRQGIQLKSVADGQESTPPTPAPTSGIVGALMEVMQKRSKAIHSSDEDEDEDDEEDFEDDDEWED
Sequence of VCA-AF594 (N-WASP VCA 430–505, S430C, C431A, AlexaFluor 594 labeled) (human) (O00401 430-505 S430C/C431A): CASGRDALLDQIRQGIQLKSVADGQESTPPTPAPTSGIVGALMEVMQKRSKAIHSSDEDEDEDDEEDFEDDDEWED
Sequence of VVCA-A462C-AF594 (N-WASP 393–505, C431A, A462C, AlexaFluor 594 labeled) (human) (O00401 393-505 C431A/A462C): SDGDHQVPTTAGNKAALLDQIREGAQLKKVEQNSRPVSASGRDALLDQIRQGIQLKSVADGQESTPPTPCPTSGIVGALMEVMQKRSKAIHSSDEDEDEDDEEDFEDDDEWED

In [1], “Cy3-diVCA wild-type (N-WASP VCA covalently dimerized with a Cy3 bis-maleimide) (from UniProt O00401 432-505) (domain or fragment)” displayed a Kd of under 2 nM; a kon of 1.6e+08 M⁻¹ s⁻¹; a percent of tethered Arp2/3 complexes observed to bind diVCA of over 80%; a τV1, first characteristic lifetime of diVCA on isolated Arp2/3 complexes of 8 s. In [1], this substance gave a τV2, second characteristic lifetime of diVCA on isolated Arp2/3 complexes of 61 s. The same substance gave a kB, second order rate constant for branch formation (per mother filament subunit), single-molecule TIRF in assay [2] of 160 M⁻¹ s⁻¹. The same substance gave a fold stimulation of Arp2/3 complex-dependent nucleation in bulk pyrene-actin assays (barbed ends at the midpoint; 25 nM diVCA construct, 10 nM Arp2/3-SNAP) in assay [3] of 2 fold. For the same substance, in assay [4], the fAV, fraction of Arp2/3 complexes that bind filament sides coincident with diVCA was 0.83; the kV*, rate constant for diVCA release from the nascent branch (filament-bound Arp2/3 complex) stood at 0.04 s⁻¹; the τV*, mean lifetime of diVCA on nascent branches (filament-bound Arp2/3 complex) was determined as 0.7 s.
As to “Cy3-diVCA-V* (D435S/A436D) (from UniProt O00401 432-505) (domain or fragment)”, in assay [1], the kon was 7e+07 M⁻¹ s⁻¹; the τV1, first characteristic lifetime of diVCA on isolated Arp2/3 complexes worked out at 3.6 s; the τV2, second characteristic lifetime of diVCA on isolated Arp2/3 complexes amounted to 56 s. In addition, the kB, second order rate constant for branch formation (per mother filament subunit), single-molecule TIRF in assay [2] worked out at 320 M⁻¹ s⁻¹. This substance displayed a fold stimulation of Arp2/3 complex-dependent nucleation in bulk pyrene-actin assays (barbed ends at the midpoint; 25 nM diVCA construct, 10 nM Arp2/3-SNAP) in assay [3] of 10 fold. In assay [4], this substance displayed a fAV, fraction of Arp2/3 complexes that bind filament sides coincident with diVCA of 0.7; a kV*, rate constant for diVCA release from the nascent branch (filament-bound Arp2/3 complex) of 0.08 s⁻¹; a τV*, mean lifetime of diVCA on nascent branches (filament-bound Arp2/3 complex) of 0.54 s.
In assay [1], “Cy3-diVCA-A* (Δ486–488) (from UniProt O00401 432-505) (domain or fragment)” displayed a kon of 1.6e+08 M⁻¹ s⁻¹; a τV1, first characteristic lifetime of diVCA on isolated Arp2/3 complexes of 40 s; a τV2, second characteristic lifetime of diVCA on isolated Arp2/3 complexes of 250 s. In [2], this substance returned a kB, second order rate constant for branch formation (per mother filament subunit), single-molecule TIRF of 100 M⁻¹ s⁻¹. The substance further had a fold stimulation of Arp2/3 complex-dependent nucleation in bulk pyrene-actin assays (barbed ends at the midpoint; 25 nM diVCA construct, 10 nM Arp2/3-SNAP) in assay [3] of 1.4 fold. Also, in [4], the fAV, fraction of Arp2/3 complexes that bind filament sides coincident with diVCA worked out at 0.7; the kV*, rate constant for diVCA release from the nascent branch (filament-bound Arp2/3 complex) was determined as 0.022 s⁻¹; the τV*, mean lifetime of diVCA on nascent branches (filament-bound Arp2/3 complex) was determined as 0.7 s.
In [5], “S. cerevisiae Arp2/3 complex purified from commercial baker's yeast (from UniProt P32381 1-391; P47117 1-449; Q05933 1-178)” registered a Kd of 65 nM.
Substance “GST-VCA-C* (GST fusion of N-WASP VCA with the C* mutation) (from UniProt O00401 432-505) (domain or fragment)” registered a fold weaker affinity than GST-VCA in [6] of 4 fold.
In assay [1], “Cy3-diVCA-C* (I467A) (from UniProt O00401 432-505) (domain or fragment)” registered an on-rate (kon) of 6e+07 M⁻¹ s⁻¹; a τV1, first characteristic lifetime of diVCA on isolated Arp2/3 complexes of 2.4 s; a τV2, second characteristic lifetime of diVCA on isolated Arp2/3 complexes of 14 s. The kB, second order rate constant for branch formation (per mother filament subunit), single-molecule TIRF in assay [2] was found to be 200 M⁻¹ s⁻¹. The substance also came in with a fold stimulation of Arp2/3 complex-dependent nucleation in bulk pyrene-actin assays (barbed ends at the midpoint; 25 nM diVCA construct, 10 nM Arp2/3-SNAP) in [3] of 6 fold. In assay [4], this substance returned a fAV, fraction of Arp2/3 complexes that bind filament sides coincident with diVCA of 0.59; a kV*, rate constant for diVCA release from the nascent branch (filament-bound Arp2/3 complex) of 0.05 s⁻¹; a τV*, mean lifetime of diVCA on nascent branches (filament-bound Arp2/3 complex) of 0.37 s.
For “Endogenous bovine Arp2/3 complex (from UniProt A7MB62 1-394; P61157 1-418)”, the Kd in [7] stood at 150 nM.
“SNAP-tagged S. cerevisiae Arp2/3 complex labeled with Dy649 (Arp2/3-SNAP649) (from UniProt P32381 1-391; P47117 1-449; Q05933 1-178)”: in [8], the kon turned out to be 20000 M⁻¹ s⁻¹. In assay [9], the kA+ (binding to filament sides, per filament subunit) with diVCA A* present came to 8000 M⁻¹ s⁻¹; the kA+ (binding to filament sides, per filament subunit) with diVCA C* present came to 20000 M⁻¹ s⁻¹; the kA+ (binding to filament sides, per filament subunit) with diVCA V* present turned out to be 13000 M⁻¹ s⁻¹; the kA+ (binding to filament sides, per filament subunit) with diVCA w.t. present was 21000 M⁻¹ s⁻¹.
